From US20230310432A1 (JULIUS-MAXIMILIANS-UNIVERSITÄT WÜRZBURG, priority 2017, published 2023)
Blank lines part the entries; values can stand above or below the molecule they belong to.

Assays:
[1] = tested on: CD8+ T cells expressing a ROR1 CAR with 4-1BB costimulatory domain; assay: IFN-γ ELISA, co-culture with RCH-ACV; format: cell-based, human; details: […] nilotinib; 20 h; 1310 pg/ml by untreated CAR-T cells
[2] = tested on: CD8+ T cells expressing a CD19 CAR with 4-1BB costimulation; assay: Bioluminescence-based cytotoxicity assay, K562/CD19 target cells; format: cell-based, human
Description: Cytotoxicity: Target cells were stably transduced with ffluc_GFP and incubated in triplicate wells at 1×10^4 cells/well with effector T cells at an effector to target (E:T) ratio of 5:1. D-luciferin substrate (Biosynth, Staad, Switzerland) was added to the co-culture to a final concentration of 0.15 mg/ml and the decrease in luminescence signal in wells that contained target cells and T-cells was measured using a luminometer (Tecan, Mannedorf, Switzerland). Specific lysis was calculated using the standard formula.
The inventors prepared CD8+ CAR-T cell lines from n=3 healthy donors. In each of the T-cell lines, the inventors enriched CAR-expressing T cells to >90% purity using the EGFRt-transduction marker. The inventors analyzed cytolytic activity of CD8^+ CAR-T cells in a bioluminescence-based cytotoxicity assay using K562 that the inventors had transduced with either CD19 (for testing CD19 CAR-T cells) or ROR1 (for testing ROR1 CAR-T cells) as target cells. Dasatinib was added to the assay medium at the beginning of the assay.
The inventors prepared CD8^+ CAR-T cell lines from n=3 healthy donors. In each of the T-cell lines, the inventors enriched CAR-expressing T cells to >90% purity using the EGFRt-transduction marker. The inventors analyzed cytolytic activity of CD8^+ CAR-T cells in a bioluminescence-based cytotoxicity assay using K562 target cells that the inventors had transduced with CD19.
The CAR-T cell cytolytic activity was analyzed at 1-hour intervals for 10 hours.
The inventors analyzed cytolytic activity of CD8+ CAR-T cells in a bioluminescence-based cytotoxicity assay.
The inventors prepared CD8^+ CD19 CAR-T cell lines with a 4-1BB costimulatory domain from one healthy donor. In the T-cell line, the inventors enriched CAR expressing T cells to >90% purity using the EGFRt-transduction marker. The inventors analyzed cytolytic activity of CD8^+ CAR-T cells in a 4-hour bioluminescence-based cytotoxicity assay using K562 that the inventors had transduced with CD19 as target cells to assess the influence of a panel of Src-kinase inhibitors on the cytolytic function of CAR-T cells. Src-kinase inhibitors were added to the assay medium at the beginning of the assay over a 4-log concentration range.

[3] = tested on: CAR-T cells co-expressing the iCasp suicide gene; assay: Elimination of iCasp+ T cells; format: cell-based, human; details: dimerizer (10 nM AP20187) without dasatinib; 24 hours
Description: After 24 hours, cells were labeled with anti-CD3 mAB and analyzed by flow cytometry for the presence of iCasp+ T cells.
After 24 hours, cells were labeled with anti-CD3 mAB and analyzed by flow cytometry for the presence of iCasp^+ T cells.

[4] = tested on: CD8+ T cells expressing a CD19 CAR with 4-1BB costimulation; assay: CFSE proliferation assay, co-culture with K562/CD19; format: cell-based, human; details: dexamethasone, any given concentration; 24 h-pretreatment or at start of co-culture; 72 h
[5] = tested on: CD8+ T cells expressing a CD19 CAR with 4-1BB costimulation; assay: Cytokine production and secretion (IFN-γ, IL-2 ELISA), co-culture with K562/CD19; format: cell-based, human; details: any given concentration of dexamethasone; pre-treated or during assay only
human SLAMF7 (human) = human SLAMF7 (human) (UniProt Q9NQ25); assay: cell-based or functional assay
human ROR1 (human) = human ROR1 (human) (UniProt Q01973); assay: cell-based or functional assay

Molecule: Cc1cn(-c2cc(NC(=O)c3ccc(C)c(Nc4nccc(-c5cccnc5)n4)c3)cc(C(F)(F)F)c2)cn1 [nilotinib]
production and secretion of IFN-γ [1]: 480 pg/mL

Molecule: Cc1ccc(-c2nn(C(C)(C)C)c3ncnc(N)c23)cc1 [PP1-inhibitor]
specific lysis of target cells ([2]; inhibitor 10 nM, 4-hour assay, 82% by untreated CAR-T cells): 62.4%

Molecule: CC[C@H](C(=O)N1CCCC[C@H]1C(=O)O[C@H](CCc1ccc(OC)c(OC)c1)c1cccc(OCC(=O)NCC(CNC(=O)COc2cccc([C@@H](CCc3ccc(OC)c(OC)c3)OC(=O)[C@@H]3CCCCN3C(=O)[C@@H](CC)c3cc(OC)c(OC)c(OC)c3)c2)CN(C)C)c1)c1cc(OC)c(OC)c(OC)c1 [dimerizer, AP20187]
percentage of iCasp+ cells [3]: 45%

Molecule: C[C@@H]1C[C@H]2[C@@H]3CCC4=CC(=O)C=C[C@]4(C)[C@@]3(F)[C@@H](O)C[C@]2(C)[C@@]1(O)C(=O)CO [dexamethasone]
remaining proliferation compared to untreated CAR-T cells [4]: less than 26%
specific lysis of target cells ([2]; dexamethasone added at the beginning of the assay, any of the applied dosages (0.1-100 μM), 91% non-treated): > 87%
specific lysis of target cells ([2]; pre-treated for 24 h with dexamethasone, all tested doses, t=10 h, 91% non-treated): > 45%
residual specific IFN-γ secretion compared to non-treated CAR-T cells [5]: more than 43%
residual specific IL-2 secretion compared to non-treated CAR-T cells [5]: less than 17%

specific lysis of K562/SLAMF7 target cells by CD8+ CAR-T cells without dasatinib, t=6 h (human SLAMF7 (human)): 67%
specific lysis of K562/SLAMF7 target cells by CD8+ CAR-T cells without dasatinib, t=12 h (human SLAMF7 (human)): 85%
B1: SLAMF7 CAR with CD28 costimulatory domain (receptor)
chain: EVQLVESGGGLVQPGGSLRLSCAASGFDFSRYWMSWVRQAPGKGLEWIGEINPDSSTINYAPSLKDKFIISRDNAKNSLYLQMNSLRAEDTAVYYCARPDGNYWYFDVWGQGTLVTVSSGGGGSGGGGSGGGGSDIQMTQSPSSLSASVGDRVTITCKASQDVGIAVAWYQQKPGKVPKLLIYWASTRHTGVPDRFSGSGSGTDFTLTISSLQPEDVATYYCQQYSSYPYTFGQGTKVEIKESKYGPPCPPCPAPPVAGPSVFLFPPKPKDTLMISRTPEVTCVVVDVSQEDPEVQFNWYVDGVEVHNAKTKPREEQFQSTYRVVSVLTVLHQDWLNGKEYKCKVSNKGLPSSIEKTISKAKGQPREPQVYTLPPSQEEMTKNQVSLTCLVKGFYPSDIAVEWESNGQPENNYKTTPPVLDSDGSFFLYSRLTVDKSRWQEGNVFSCSVMHEALHNHYTQKSLSLSLGKMFWVLVVVGGVLACYSLLVTVAFIIFWVRSKRSRGGHSDYMNMTPRRPGPTRKHYQPYAPPRDFAAYRSRVKFSRSADAPAYQQGQNQLYNELNLGRREEYDVLDKRRGRDPEMGGKPRRKNPQEGLYNELQKDKMAEAYSEIGMKGERRRGKGHDGLYQGLSTATKDTYDALHMQALPPR

specific lysis of K562/SLAMF7 target cells by CD8+ CAR-T cells without dasatinib, t=6 h (human SLAMF7 (human)): 63%
specific lysis of K562/SLAMF7 target cells by CD8+ CAR-T cells without dasatinib, t=12 h (human SLAMF7 (human)): 83%
B2: SLAMF7 CAR with 4-1BB costimulatory domain (receptor)
chain: EVQLVESGGGLVQPGGSLRLSCAASGFDFSRYWMSWVRQAPGKGLEWIGEINPDSSTINYAPSLKDKFIISRDNAKNSLYLQMNSLRAEDTAVYYCARPDGNYWYFDVWGQGTLVTVSSGGGGSGGGGSGGGGSDIQMTQSPSSLSASVGDRVTITCKASQDVGIAVAWYQQKPGKVPKLLIYWASTRHTGVPDRFSGSGSGTDFTLTISSLQPEDVATYYCQQYSSYPYTFGQGTKVEIKESKYGPPCPPCPAPPVAGPSVFLFPPKPKDTLMISRTPEVTCVVVDVSQEDPEVQFNWYVDGVEVHNAKTKPREEQFQSTYRVVSVLTVLHQDWLNGKEYKCKVSNKGLPSSIEKTISKAKGQPREPQVYTLPPSQEEMTKNQVSLTCLVKGFYPSDIAVEWESNGQPENNYKTTPPVLDSDGSFFLYSRLTVDKSRWQEGNVFSCSVMHEALHNHYTQKSLSLSLGKMFWVLVVVGGVLACYSLLVTVAFIIFWVKRGRKKLLYIFKQPFMRPVQTTQEEDGCSCRFPEEEEGGCELRVKFSRSADAPAYQQGQNQLYNELNLGRREEYDVLDKRRGRDPEMGGKPRRKNPQEGLYNELQKDKMAEAYSEIGMKGERRRGKGHDGLYQGLSTATKDTYDALHMQALPPR

IFN-γ in supernatant (ELISA) of co-culture with RCH-ACV target cells, untreated CD8+ CAR-T cells (human ROR1 (human)): 1310 pg/mL
proliferation index (CFSE) after 72 h co-culture with RCH-ACV, untreated CD8+ CAR-T cells (human ROR1 (human)): 2.84
specific lysis of K562/ROR1 target cells by CD8+ CAR-T cells without dasatinib, t=10 h (human ROR1 (human)): 94%
specific lysis of K562/ROR1 target cells by CD8+ CAR-T cells without dasatinib, up to t=5 h (human ROR1 (human)): 73%
specific lysis of RCH-ACV target cells by untreated CD8+ CAR-T cells, t=8 hours (human ROR1 (human)): > 90%
B3: ROR1 CAR with 4-1BB costimulatory domain (receptor)
chain: QVQLVESGGALVQPGGSLTLSCKASGFDFSAYYMSWVRQAPGKGLEWIATIYPSSGKTYYAASVQGRFTISADNAKNTVYLQMNSLTAADTATYFCARDSYADDGALFNIWGQGTLVTVSSGGGGSGGGGSGGGGSQLVLTQSPSVSAALGSSAKITCTLSSAHKTDTIDWYQQLAGQAPRYLMYVQSDGSYEKRSGVPDRFSGSSSGADRYLIISSVQADDEADYYCGADYIGGYVFGGGTQLTVGESKYGPPCPPCPMFWVLVVVGGVLACYSLLVTVAFIIFWVKRGRKKLLYIFKQPFMRPVQTTQEEDGCSCRFPEEEEGGCELRVKFSRSADAPAYQQGQNQLYNELNLGRREEYDVLDKRRGRDPEMGGKPRRKNPQEGLYNELQKDKMAEAYSEIGMKGERRRGKGHDGLYQGLSTATKDTYDALHMQALPPR
